Results: patent US20250002557A1
Like-named read-outs stand apart in the source and are kept apart here.

Key:
VEGF-A165 [1] = biological target: VEGF-A165 (UniProt P15692); experiment: blocking ELISA, VEGF-A165 to VEGFR1 (Example 13)
VEGF-A165 [2] = biological target: VEGF-A165 (UniProt P15692); experiment: blocking ELISA, VEGF-A165 to VEGFR2 (Example 13)
VEGF-A165 [3] = biological target: VEGF-A165 (UniProt P15692); experiment: blocking ELISA, VEGF A165 to VEGFR1 (Example 16)
VEGF-A165 [4] = biological target: VEGF-A165 (UniProt P15692); experiment: blocking ELISA, VEGF A165 to VEGFR2 (Example 16)
VEGF-A165 [5] = biological target: VEGF-A165 (UniProt P15692); experiment: blocking ELISA, VEGF-A 165-His to coated VEGFR2-Fc
PIGF [6] = biological target: T1, PIGF (UniProt P49763); experiment: ELISA, PlGF coated, anti-human Fc-HRP, OD450
T1 sequence (looked up): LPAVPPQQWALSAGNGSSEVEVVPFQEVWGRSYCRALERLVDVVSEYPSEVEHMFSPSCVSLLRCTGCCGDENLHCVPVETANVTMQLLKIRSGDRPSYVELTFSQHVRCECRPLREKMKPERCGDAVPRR

PIGF [7] = biological target: T1, PIGF; experiment: ELISA, PlGF coated, anti-human Fc-HRP, OD450; remark: listed apart in the source
PIGF [8] = biological target: T1, PIGF; experiment: ELISA, PlGF coated, anti-human Fc-HRP, OD450; remark: listed apart in the source
VEGF-A165 [9] = biological target: VEGF-A165 (UniProt P15692); experiment: ELISA binding to VEGF-A165, absorbance 450 nm
VEGF-B [10] = biological target: T2, VEGF-B (UniProt P49765); experiment: ELISA, VEGF-B coated, anti-human Fc-HRP, OD450
T2 sequence (looked up): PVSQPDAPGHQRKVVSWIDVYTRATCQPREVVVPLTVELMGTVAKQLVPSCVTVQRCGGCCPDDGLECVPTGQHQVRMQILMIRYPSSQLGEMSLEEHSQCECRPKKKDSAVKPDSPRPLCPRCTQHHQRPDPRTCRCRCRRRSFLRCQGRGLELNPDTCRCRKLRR

VEGF-B [11] = biological target: T2, VEGF-B; experiment: ELISA, VEGF-B coated, anti-human Fc-HRP, OD450; remark: listed apart in the source
VEGF-B [12] = biological target: T2, VEGF-B; experiment: ELISA, VEGF-B coated, anti-human Fc-HRP, OD450; remark: listed apart in the source
VEGF-A165 [13] = biological target: VEGF-A165 (UniProt P15692); experiment: blocking ELISA, VEGF-A 165-His to coated VEGFR2-Fc; row head prints uM, paragraph 129 and ng/ml row give nM
VEGF-A165 [14] = biological target: VEGF-A165 (UniProt P15692); experiment: blocking ELISA: His-VEGF-A165 premixed with sample, binding to coated VEGFR2-Fc read with anti-His-HRP

VEGF-A165, sequence (P15692 other isoform, or with tags, fused parts or gaps limits assumed): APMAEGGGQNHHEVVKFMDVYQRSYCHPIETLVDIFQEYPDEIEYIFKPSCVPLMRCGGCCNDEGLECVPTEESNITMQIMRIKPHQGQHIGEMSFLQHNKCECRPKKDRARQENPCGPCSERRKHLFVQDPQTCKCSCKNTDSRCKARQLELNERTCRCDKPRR
Eylea (Fc fusion), sequence (chain): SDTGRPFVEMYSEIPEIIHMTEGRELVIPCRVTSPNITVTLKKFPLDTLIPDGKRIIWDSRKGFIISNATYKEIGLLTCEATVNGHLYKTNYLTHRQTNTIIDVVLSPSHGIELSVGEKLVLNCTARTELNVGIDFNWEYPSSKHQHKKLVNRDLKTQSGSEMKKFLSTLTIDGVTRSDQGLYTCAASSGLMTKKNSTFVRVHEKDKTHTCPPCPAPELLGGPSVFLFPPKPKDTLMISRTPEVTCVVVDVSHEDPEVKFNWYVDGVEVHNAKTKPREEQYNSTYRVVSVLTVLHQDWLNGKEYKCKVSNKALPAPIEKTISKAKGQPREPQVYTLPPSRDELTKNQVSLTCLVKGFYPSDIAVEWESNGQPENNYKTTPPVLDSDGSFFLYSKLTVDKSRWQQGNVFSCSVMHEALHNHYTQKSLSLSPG

EC50 (VEGF-A165 [1]): 4.64 nM
EC50 (VEGF-A165 [2]): 2.23 nM
EC50 (VEGF-A165 [3]): 6.96 nM
EC50 (VEGF-A165 [4]): 3.94 nM
EC50 (VEGF-A165 [5]): 0.32 µg/mL
EC50 (PIGF [6]): 0.17 nM
EC50 (PIGF [7]): 0.1 nM
EC50 (PIGF [8]): 0.223 nM
EC50 (VEGF-A165 [9]): 0.138 nM
EC50 (VEGF-B [10]): 0.64 nM
EC50 (VEGF-B [11]): 0.94 nM
EC50 (VEGF-B [12]): 1.07 nM
EC50 (VEGF-A165 [13]): 3200 nM
EC50 (VEGF-A165 [14]): 1.7 nM
Substance: Eylea (Fc fusion)
